B1: AT10-001 (antibody, V domains shown)
VH: EVQLLESGGGLVQPGGSLRLSCAASGFSFSTYAMSWVRQAPGKGLEWVSGISGSGESTYYADSVKGRFTVSRDNSKNTLYLQMNSLRAEDTAVYYCAKQGDHIAWLLRGINFDYWGQGVLVTVSS
VL: EIVLTQSPGTLSLSPGERATLSCRASQSVSSSYLAWYQQKPGQAPRLLIYGASTRATGIPDRFSGRGSGTDFTLTISSLEPEDFAVYYCQNYGSPFLFTFGPGTKVDIKR
B2: AT10-004 (antibody, V domains shown)
VH: QVQLVQSGAEVRKPGASVKVSCKASGYTFTRHGISWVRQAPGQGLEWMGWISAYTGDTDYAQKFQGRVTMTTDTSTNTAYMELRSLRSDDAAVYYCARLRLQGEVVVPPSQSNWFDPWGQGTLVTVSS
VL: EIVLTQSPATLSLYPGERATLSCRASQSVSRYLAWYQQKPGQAPRLLIYDASNRATGIPARFSGSGSGTDFTLTISSLEPEDFAVYYCQQRSNWLKITFGQGTRLEIKG
B3: AT10-002 (antibody, V domains shown)
VH: QLQLQESGPRLVKPSETLSLTCSVSGVSISSSNYYWGWIRQPPGKGLEWIGTIYHSGSTYYNPSLKSRLIISVDTSKNQFYLQLTSLTAADSAVYYCATGGGFGWSQTYFGYWGQGTLVTASS
VL: QSALTQPASVSGSPGQSITISCTGTSSDVGAYNYVSWYQHHPGKAPKLMIYDVTYRPSGVSTRFSGSKSGNTASLTISGLQAEDEADYYCSSQSRSSTLVIFGGGTKLTVLG
B4: AT10-003 (antibody, V domains shown)
VH: QVHLVQSGAEVRKPGASVKVSCKVSGYTLNELSIHWLRQAPGRGLEWMGSFDPEDGETIYAQKFQGRVTMTGDTSTDTAYLELTSLRSEDTALYYCARGWGAVTSPFDFWGQGTLVTVSS
VL: DIVMTQSPLSLPVTPGEPASISCRSSQSLLHSNGHIYFDWYLQKPGQSPQLLIYLVSKRASGVPDRFSGSGSGTDFTLKISRVEAEDVGVYYCMQALETPFTFGPGTKVHIKR

These binders were tested against T1, H3 HA1 subunit (A/Aichi/2/1968, HA1 subunit, Met-1-Arg 345) (Influenza A virus H3N2 A/Aichi/2/1968, UniProt P03437 17-345) (assay: ELISA; HA1 subunit coated 1 µg/ml; recombinant antibody).
T1 construct: range 1-345; also called H3N2 A/Aichi/2/1968 HA1 subunit

Binder	binding result
B1	no binding
B2	no binding

The binders below were run against T1, H3 HA1 subunit (A/Aichi/2/1968, HA1 …) (assay: ELISA; antigen coated 1 µg/ml; recombinant antibody).
Set-up: concentration or dose not given beside the values

Binder	OD 450 nm
B3	-0.006 OD 450 nm
B1	0.01 OD 450 nm
B2	0.096 OD 450 nm
B4	1.28 OD 450 nm
